Measured values taken from patent US20230174655A1 (published 2023).
Numbering of substitutions follows the chain as printed. Names and notes keep the numbering of the source.

B1: IL6R-PD079/IL6R-L (antibody, human IgG1, kappa)
heavy: QVQLQESGPGLVKPSETLSLTCAVSGHSISHDHAWSWVRQPPGEGLEWIGFISYSGITNYNPSLQGRVTISRDNSKNTLYLQMNSLRAEDTAVYYCARSLARTTAMDYWGEGTLVTVSSASTKGPSVFPLAPSSKSTSGGTAALGCLVKDYFPEPVTVSWNSGALTSGVHTFPAVLQSSGLYSLSSVVTVPSSSLGTQTYICNVNHKPSNTKVDKKVEPKSCDKTHTCPPCPAPELLGADSVFLFPPKPKDTLYISRTPEVTCVVVDVSHEDPEVKFNWYVDGVEVHNAKTKPREEQYNSTYRVVSVLTVLHQDWLNGKEYKCKVSNKALPAPIEKTISKAKGQPREPQVYTLPPSRDELTKNQVSLTCLVKGFYPSDIAVEWESNGQPENNYKTTPPVLDSDGSFFLYSKLTVDKSRWQQGNVFSCSVMHEALHYHYTQKSLSLSP
light: not shown
notes: H chain: IL6R-F11 with P238D/G237A (EU numbering); also called P238D/G237A; copies: 2 + 2
B2: IL6R-PD043/IL6R-L (antibody, human IgG1, kappa)
heavy: B1 heavy with L236Y, A239G
light: not shown
notes: H chain: IL6R-F11 with P238D/L234Y (EU numbering); also called P238D/L234Y; copies: 2 + 2
B3: IL6R-PD080/IL6R-L (antibody, human IgG1, kappa)
heavy: B1 heavy with A239D
light: not shown
notes: H chain: IL6R-F11 with P238D/G237D (EU numbering); also called P238D/G237D; copies: 2 + 2
B4: IL6R-PD081/IL6R-L (antibody, human IgG1, kappa)
heavy: B1 heavy with A239E
light: not shown
notes: H chain: IL6R-F11 with P238D/G237E (EU numbering); also called P238D/G237E; copies: 2 + 2
B5: IL6R-PD082/IL6R-L (antibody, human IgG1, kappa)
heavy: B1 heavy with A239F
light: not shown
notes: H chain: IL6R-F11 with P238D/G237F (EU numbering); also called P238D/G237F; copies: 2 + 2
B6: IL6R-PD087/IL6R-L (antibody, human IgG1, kappa)
heavy: B1 heavy with A239M
light: not shown
notes: H chain: IL6R-F11 with P238D/G237M (EU numbering); also called P238D/G237M; copies: 2 + 2
B7: IL6R-PD094/IL6R-L (antibody, human IgG1, kappa)
heavy: B1 heavy with A239W
light: not shown
notes: H chain: IL6R-F11 with P238D/G237W (EU numbering); also called P238D/G237W; copies: 2 + 2
B8: IL6R-PD095/IL6R-L (antibody, human IgG1, kappa)
heavy: B1 heavy with A239Y
light: not shown
notes: H chain: IL6R-F11 with P238D/G237Y (EU numbering); also called P238D/G237Y; copies: 2 + 2
B9: IL6R-2B251/IL6R-L (antibody, human IgG1, kappa)
heavy: B1 heavy with E235D, A239G, Y254M, Y298D, Y436N, K441E
light: not shown
notes: alteration printed: B233D/P238D/Y296D; also called ILGR-2B261/IL6R-L; copies: 2 + 2
B10: IL6R-BF195/IL6R-L (antibody, human IgG1, kappa)
heavy: QVQLQESGPGLVKPSETLSLTCAVSGHSISHDHAWSWVRQPPGEGLEWIGFISYSGITNYNPSLQGRVTISRDNSKNTLYLQMNSLRAEDTAVYYCARSLARTTAMDYWGEGTLVTVSSASTKGPSVFPLAPSSKSTSGGTAALGCLVKDYFPEPVTVSWNSGALTSGVHTFPAVLQSSGLYSLSSVVTVPSSSLGTQTYICNVNHKPSNTKVDKKVEPKSCDKTHTCPPCPAPDYLGDDSVFLFPPKPKDTLMISRTPEVTCVVVDVSDEDGEVKFNWYVDGVEVHNAKTKPREEQDNSTYRVVSVLTVLHQDWLNGKEYKCKVSNAALPKPIEKTISKAKGQPREPQVYTLPPSRDELTKNQVSLTCLVKGFYPSDIAVEWESNGQPENNYKTTPPVLDSDGSFFLYSKLTVDKSRWQQGNVFSCSVMHEALHNHYTQESLSLSP
light: not shown
notes: copies: 2 + 2
B11: IL6R-BF201/IL6R-L (antibody, human IgG1, kappa)
heavy: B10 heavy with Y236L, D270H, D298Y, A328K, K332R
light: not shown
notes: alteration printed: E233D/G237D/P238D/P271G/A330R; copies: 2 + 2
B12: IL6R-2B253/IL6R-L (antibody, human IgG1, kappa)
heavy: B1 heavy with E235D, A239G, Y254M, V325M, Y436N, K441E
light: not shown
notes: alteration printed: B233D/P238D/V323M; copies: 2 + 2
B13: IL6R-BF084/IL6R-L (antibody, human IgG1, kappa)
heavy: B1 heavy with A239G, Y254M, V325M, A332K, Y436N, K441E
light: not shown
notes: alteration printed: 9238D/Y325M/A330K; copies: 2 + 2
B14: IL6R-BF132/IL6R-L (antibody, human IgG1, kappa)
heavy: B10 heavy with Y236L, D239G, D270H, G273P, D298Y
light: not shown
notes: alteration printed: B233D/P236D/K326A/A330K; copies: 2 + 2
B15: IL6R-BF180/IL6R-L (antibody, human IgG1, kappa)
heavy: B10 heavy with D235E, Y236L, D270H, D298Y, A328K
light: not shown
notes: alteration printed: G237D/P238D/P271G/A330K; copies: 2 + 2
B16: IL6R-BF196/IL6R-L (antibody, human IgG1, kappa)
heavy: B10 heavy with D235E, D239G, D298Y
light: not shown
notes: alteration printed: L234Y/P236D/H258D/P271G/K326A/A330K; copies: 2 + 2
B17: IL6R-BF205/IL6R-L (antibody, human IgG1, kappa)
heavy: B10 heavy with Y236L, D239G, D270H, A328K, K332R
light: not shown
notes: alteration printed: B233D/P298D/P271G/Y296D/A330R; copies: 2 + 2
B18: IL6R-BF206/IL6R-L (antibody, human IgG1, kappa)
heavy: B10 heavy with Y236L, D239G, D270H, D298Y, A328K, K332R
light: not shown
notes: alteration printed: BB233D/P238D/P271G/A330R; copies: 2 + 2
B19: IL6R-BF063/IL6R-L (antibody, human IgG1, kappa)
heavy: B10 heavy with D235E, D239G, D270H, G273P, D298Y
light: not shown
notes: alteration printed: L234Y/P236D/K326A/A330K; also called IL6R-BF089/IL6R-L; copies: 2 + 2
B20: IL6R-BF085/IL6R-L (H chain SEQ ID NO 71) (antibody, human IgG1, kappa)
heavy: B1 heavy with A239D, Y254M, A332K, Y436N, K441E
light: not shown
notes: alteration printed: G237D/P238D/A330K; also called IL6R-BF065/IL6R-L; copies: 2 + 2
B21: IL6R-BF085/IL6R-L (H chain SEQ ID NO 72) (antibody, human IgG1, kappa)
heavy: B10 heavy with D235E, Y236L, D239G, D270H, G273P, D298Y
light: not shown
notes: alteration printed: P238D/K326A/A330K; also called IL6R-BF086/IL6R-L; copies: 2 + 2

These binders were tested against T1, FcγRIIa type R extracellular domain with C-terminal His tag (human, UniProt P12318 34-217) (assay: SPR (Biacore), Reference Example 2).
T1 construct: extracellular domain; also called FcγRIIa R; FcγRIIaR
T1 sequence (looked up): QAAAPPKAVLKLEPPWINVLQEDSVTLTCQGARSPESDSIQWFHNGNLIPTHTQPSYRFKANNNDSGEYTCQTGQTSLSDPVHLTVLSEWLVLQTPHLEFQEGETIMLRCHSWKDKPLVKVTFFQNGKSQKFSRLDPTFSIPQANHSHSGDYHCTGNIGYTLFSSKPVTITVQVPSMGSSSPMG
Text: (§1) Furthermore, KD(IIaR)/KD(IIb) and KD(IIaH)/KD(IIb) in the table respectively show the value obtained by dividing the KD value of each variant for FcγRIIaR by the KD value of each variant for FcγRIIb, and the value obtained by dividing the KD value of each variant for FcγRIIaH by the KD value of each variant for FcγRIIb. KD(IIb) of the parent polypeptide/KD(IIb) of the altered polypeptide refers to a value obtained by dividing the KD value of the parent polypeptide for FcγRIIb by the KD value of each variant for FcγRIIb.
(§2) Kinetic analyses for calculating the KD values of each altered antibody for FcγR were performed according to the following method. First, antibodies of interest were captured onto the above-mentioned sensor chips, and an Fcγ receptor diluted with the running buffer was allowed to interact. The Biacore™ Evaluation Software was used to globally fit the measured results to the obtained sensorgram using the 1:1 Langmuir binding model, and the association rate constant ka (L/mol/s) and the dissociation rate constant kd (1/s) were calculated; and from those values the dissociation constants KD (mol/L) were calculated.

| Binder | Kd [µM] |
| --- | --- |
| B1 | 32 |
| B2 | 26 |
| B3 | 21 |
| B4 | 38 |
| B5 | 14 |
| B6 | 22 |
| B7 | 7.2 |
| B8 | 7.9 |

The binders below were run against T2, FcγRIIb extracellular domain with C-terminal His tag (human, UniProt P31994 43-217) (assay: SPR (Biacore), antibody captured, FcgR analyte).
T2 construct: extracellular domain; also called FcRIIb; FcgRIIb; not shown: His tag at the C terminus
T2 sequence (looked up): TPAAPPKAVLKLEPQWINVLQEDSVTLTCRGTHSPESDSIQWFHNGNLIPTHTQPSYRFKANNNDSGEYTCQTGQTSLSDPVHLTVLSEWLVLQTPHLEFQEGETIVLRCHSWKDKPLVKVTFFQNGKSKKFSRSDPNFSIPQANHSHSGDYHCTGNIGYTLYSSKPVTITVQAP
Text: as §1, with “In the table, SEQ ID NO refers to the SEQ ID NO of the H chain of the evaluated variant, and alteration refers to the alteration introduced into IL6R-B3 (SEQ ID NO: 40). […] Furthermore,” for “Furthermore,”, “respectively represent” for “respectively show”, “to the” for “to a”
as §2

| Binder | Kd [µM] |
| --- | --- |
| B9 | 10 |
| B10 | 50 |
| B11 | 40 |

What follows are binders tested against T3, FcγRIIIa type V extracellular domain with C-terminal His tag (human, UniProt P08637 17-208) (assay: SPR (Biacore), antibody captured, FcgR analyte).
T3 construct: extracellular domain; also called FcIIIaV; FcgRIIIaV; not shown: His tag at the C terminus
Text: as §1, with “In the table, SEQ ID NO refers to the SEQ ID NO of the H chain of the evaluated variant, and alteration refers to the alteration introduced into IL6R-B3 (SEQ ID NO: 40). […] Furthermore,” for “Furthermore,”, “respectively represent” for “respectively show”, “to the” for “to a”
as §2

T3 sequence (P08637 17-208 F176V): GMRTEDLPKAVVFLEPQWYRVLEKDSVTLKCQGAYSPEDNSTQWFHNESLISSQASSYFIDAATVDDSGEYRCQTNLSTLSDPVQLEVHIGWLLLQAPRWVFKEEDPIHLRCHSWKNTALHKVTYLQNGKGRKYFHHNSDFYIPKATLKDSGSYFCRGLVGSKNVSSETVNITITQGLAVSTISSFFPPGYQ

| Binder | Kd [µM] |
| --- | --- |
| B12 | 5 |
| B13 | 6.7 |
| B14 | 50 |
| B15 | 7 |
| B10 | 3.1 |
| B16 | 5.1 |
| B17 | 6.8 |
| B18 | 6.9 |

Molecular target: T4, FcγRIIa type R extracellular domain with C-terminal His tag (human, UniProt P12318 34-217)
T4 chain: T1 sequence (looked up)
Test: SPR (Biacore), antibody captured, FcgR analyte
Text: as §1, with “In the table, SEQ ID NO refers to the SEQ ID NO of the H chain of the evaluated variant, and alteration refers to the alteration introduced into IL6R-B3 (SEQ ID NO: 40). […] Furthermore,” for “Furthermore,”, “respectively represent” for “respectively show”, “to the” for “to a”
as §2

| Binder | Kd [µM] |
| --- | --- |
| B12 | 0.05 |
| B19 | 0.064 |
| B20 | 4.2 |
| B21 | 0.097 |
| B14 | 8 |
| B15 | 1.2 |
| B10 | 0.91 |
| B16 | 0.03 |
| B11 | 0.84 |
| B17 | 3.5 |
| B18 | 3.1 |
